From paper PMC5912696

Target: Q394X truncation of the ER-tethered Ste6 NBD2 chimera (yeast)
Assay: co-IP

Substance “Hsp104 (from UniProt P31539 1-908) (natural protein)” has a fold above background of 2 fold.
